From patent publication US20210015937A1

Biological target: human LAG-3 expressed on cells (human) (UniProt P18627)
Assay: cell-based or functional assay

Sequence of human LAG-3 expressed on cells (human) (P18627 23-525 limits assumed): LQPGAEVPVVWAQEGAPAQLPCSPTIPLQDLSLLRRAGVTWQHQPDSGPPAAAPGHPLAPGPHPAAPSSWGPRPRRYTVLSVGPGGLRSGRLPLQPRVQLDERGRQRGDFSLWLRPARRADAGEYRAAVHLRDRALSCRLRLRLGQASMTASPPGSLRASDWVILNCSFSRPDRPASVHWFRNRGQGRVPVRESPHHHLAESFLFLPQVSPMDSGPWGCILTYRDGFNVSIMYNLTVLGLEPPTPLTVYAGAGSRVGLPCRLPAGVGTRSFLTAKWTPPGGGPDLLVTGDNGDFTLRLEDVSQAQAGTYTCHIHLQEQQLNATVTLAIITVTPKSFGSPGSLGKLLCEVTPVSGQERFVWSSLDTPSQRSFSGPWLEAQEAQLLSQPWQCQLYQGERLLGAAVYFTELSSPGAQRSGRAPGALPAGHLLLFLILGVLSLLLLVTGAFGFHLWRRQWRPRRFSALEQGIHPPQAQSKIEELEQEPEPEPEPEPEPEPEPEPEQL

EC50 (M), NFAT-Luciferase Reporter Gene assay (LAG-3:MHCII) [M] | Substance
4e-09 | Human anti-LAG3 antibody (Relatlimab analogue)
3.2e-08 | Mouse anti-LAG3 antibody clone 17B4
